Experimental data reported in patent US12427210B2, “Compounds comprising a fibroblast activation protein ligand and use thereof” (priority 2019, dated 2025).
Bridge positions count the residues as written; N and C are the ends. * marks the point of attachment. Hexanoyl = CCCCCC(=O)*

T1: Cathepsin F (Homo sapiens (Human)) (UniProt Q9UBX1)
T1 sequence: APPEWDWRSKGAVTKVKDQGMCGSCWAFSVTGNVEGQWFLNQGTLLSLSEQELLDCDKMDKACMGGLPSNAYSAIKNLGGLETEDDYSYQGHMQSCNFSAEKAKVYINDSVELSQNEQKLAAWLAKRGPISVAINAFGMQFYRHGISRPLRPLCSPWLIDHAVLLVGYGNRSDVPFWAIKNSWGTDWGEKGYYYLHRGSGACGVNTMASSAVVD

B1: Hex-[Cys(tMeBn(InDOTA-PP))-Pro-Pro-Thr-Gln-Phe-Cys]-Asp-NH2 (3BP-3590) (peptide)
peptide: CPPTQFCD
modifications: N-terminal hexanoyl (Hex); Cys1 and Cys7 cyclised through tMeBn carrying InDOTA-PP (indium complex); C-terminal amide
B2: Hex-[Cys-(tMeBn(CuDOTA-AET))-Pro-Pro-Thr-Gln-Phe-Cys]-OH (3BP-4293) (peptide)
peptide: CPPTQFC
modifications: here or on the partner: N-terminal hexanoyl (Hex); Cys1 and Cys7 cyclised through tMeBn carrying CuDOTA-AET (copper(II) complex); free C-terminal acid (-OH)
B3: alpha -dendrotoxin (protein)
chain: QPRRKLCILHRNPGRCYDKIPAFYYNQKKKQCERFDWSGCGGNSNRFKTIEECRRTCIG
B4: Hex-[Cys-(tMeBn(ZnDOTA-AET))-Pro-Pro-Thr-Gln-Phe-Cys]-OH (3BP-4343) (peptide)
peptide: Hexanoyl-CPPTQFC-OH
modifications: bridge 1-7; not fully specified (bridges); printed as Hex-[Cys-(tMeBn(ZnDOTA-AET))-Pro-Pro-Thr-Gln-Phe-Cys]-OH; also: zinc complex (ZnDOTA) of 3BP-3554
B5: Hex-[Cys(tMeBn(GaDOTA-AET))-Pro-Pro-Thr-Gln-Phe-Cys]-OH (3BP-3949) (peptide)
peptide: CPPTQFC
modifications: here or on the partner: N-terminal hexanoyl (Hex); Cys1 and Cys7 cyclised through tMeBn carrying GaDOTA-AET (gallium complex); free C-terminal acid (-OH)
B6: Hex-[Cys(tMeBn(InDOTA-AET))-Pro-Pro-Thr-Gln-Phe-Cys]-OH (3BP-3623) (peptide)
peptide: CPPTQFC
modifications: here or on the partner: N-terminal hexanoyl (Hex); Cys1 and Cys7 cyclised through tMeBn carrying InDOTA-AET (indium complex); free C-terminal acid (-OH)
B7: Hex-[Cys(tMeBn(LuDOTA-PP))-Pro-Pro-Thr-Gln-Phe-Cys]-Asp-NH2 (3BP-3591) (peptide)
peptide: CPPTQFCD
modifications: N-terminal hexanoyl (Hex); Cys1 and Cys7 cyclised through tMeBn carrying LuDOTA-PP (lutetium complex); C-terminal amide
B8: Cystatin C (protein)
chain: SSPGKPPRLVGGPMDASVEEEGVRRALDFAVGEYNKASNDMYHSRALQVVRARKQIVAGVNYFLDVELGRTTCTKTQPNLDNCPFHDQPHLKRKAFCSFQIYAVPWQGTMTLSKSTCQDA
B9: Hex-[Cys(tMeBn(LuDOTA-AET))-Pro-Pro-Thr-Gln-Phe-Cys]-OH (3BP-3624) (peptide)
peptide: CPPTQFC
modifications: here or on the partner: N-terminal hexanoyl (Hex); Cys1 and Cys7 cyclised through tMeBn carrying LuDOTA-AET (lutetium complex); free C-terminal acid (-OH)
B10: Hex-[Cys(tMeBn(EuDOTA-AET))-Pro-Pro-Thr-Gln-Phe-Cys]-OH (3BP-3662) (peptide)
peptide: CPPTQFC
modifications: here or on the partner: N-terminal hexanoyl (Hex); Cys1 and Cys7 cyclised through tMeBn carrying EuDOTA-AET (europium complex); free C-terminal acid (-OH)
B11: Hex-[Cys(tMeBn(GaDOTA-PP))-Pro-Pro-Thr-Gln-Phe-Cys]-Asp-NH2 (3BP-3592) (peptide)
peptide: CPPTQFCD
modifications: N-terminal hexanoyl (Hex); Cys1 and Cys7 cyclised through tMeBn carrying GaDOTA-PP (gallium complex); C-terminal amide
B12: Hex-[Cys(tMeBn(EuDOTA-PP))-Pro-Pro-Thr-Gln-Phe-Cys]-Asp-NH2 (3BP-3661) (peptide)
peptide: CPPTQFCD
modifications: N-terminal hexanoyl (Hex); Cys1 and Cys7 cyclised through tMeBn carrying EuDOTA-PP (europium complex); C-terminal amide

Tests used:
[1] = molecular target: Recombinant human FAP (R&D systems, #3715-SE) (human)
[2] = molecular target: human fibroblast activation protein (FAP) on human WI-38 fibroblasts (human); assay: competitive FACS binding on FAP-expressing WI-38 cells against 3 nM Cy5-labeled compound; category A = pIC50 values >8.0; conditions: remark: other sources report otherwise
KV channel = assay: radioligand displacement, reference compound of the assay (Ki Ref)
[3] = molecular target: T1, Cathepsin F (Homo sapiens (Human))

Sequence of Recombinant human FAP (R&D systems, #3715-SE) (human) (chain, as listed by the source limits assumed): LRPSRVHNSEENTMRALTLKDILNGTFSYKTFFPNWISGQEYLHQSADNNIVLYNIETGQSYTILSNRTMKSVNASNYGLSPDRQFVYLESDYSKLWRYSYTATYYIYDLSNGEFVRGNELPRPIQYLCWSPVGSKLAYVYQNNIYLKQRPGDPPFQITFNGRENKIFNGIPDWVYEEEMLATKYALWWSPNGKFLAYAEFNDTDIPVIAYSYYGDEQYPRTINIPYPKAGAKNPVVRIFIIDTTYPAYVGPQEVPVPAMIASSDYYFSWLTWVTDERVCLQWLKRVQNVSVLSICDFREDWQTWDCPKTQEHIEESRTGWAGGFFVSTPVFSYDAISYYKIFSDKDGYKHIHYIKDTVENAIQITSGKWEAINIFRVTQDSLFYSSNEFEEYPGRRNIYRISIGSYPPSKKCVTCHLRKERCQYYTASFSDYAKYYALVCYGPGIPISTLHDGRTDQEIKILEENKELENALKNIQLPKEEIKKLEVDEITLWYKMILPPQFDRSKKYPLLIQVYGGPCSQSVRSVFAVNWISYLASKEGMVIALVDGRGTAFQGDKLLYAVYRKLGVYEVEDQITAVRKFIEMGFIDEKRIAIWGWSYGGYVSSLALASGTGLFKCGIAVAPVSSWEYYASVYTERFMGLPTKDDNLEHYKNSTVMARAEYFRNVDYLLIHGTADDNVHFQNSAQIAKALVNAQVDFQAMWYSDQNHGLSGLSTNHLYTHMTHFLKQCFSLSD

| Binder | pIC50 Category (Activity) [1] [pIC50] | pIC50 Category (FACS) [2] [pIC50] | further results |
| --- | --- | --- | --- |
| B1 | > 8 | – | – |
| B2 | – | > 8 | – |
| B3 | – | – | Ki (KV channel): 0.097 nM |
| B4 | – | > 8 | – |
| B5 | – | > 8 | – |
| B6 | – | > 8 | – |
| B7 | > 8 | – | – |
| B8 | – | – | Percentage inhibition (%), Reference (% inhibition at 1 µM) [3]: 74 |
| B9 | – | > 8 | – |
| B10 | – | > 8 | – |
| B11 | > 8 | – | – |
| B12 | > 8 | – | – |
